Experiment [1] has as its target 2019-nCoV S prefusion-stabilized ectodomain (residues 1-1208, two proline substitutions, GSAS at the (2019-nCoV | bacteriophage T4)). Put plainly: cryo-EM structure.
Experiment [2] shares this target. Put plainly: SPR; […], Biacore X100; 10 mM HEPES pH 8.0, 150 mM NaCl, 0.05% Tween 20; […]; 1:1 binding model.

Stoichiometry N and Kd data for two substances are collected here from article doi:10.1101/2020.02.11.944462.

Chain of human angiotensin-converting enzyme 2 (ACE2), residues 1-615, untagged (Q9BYF1 18-615): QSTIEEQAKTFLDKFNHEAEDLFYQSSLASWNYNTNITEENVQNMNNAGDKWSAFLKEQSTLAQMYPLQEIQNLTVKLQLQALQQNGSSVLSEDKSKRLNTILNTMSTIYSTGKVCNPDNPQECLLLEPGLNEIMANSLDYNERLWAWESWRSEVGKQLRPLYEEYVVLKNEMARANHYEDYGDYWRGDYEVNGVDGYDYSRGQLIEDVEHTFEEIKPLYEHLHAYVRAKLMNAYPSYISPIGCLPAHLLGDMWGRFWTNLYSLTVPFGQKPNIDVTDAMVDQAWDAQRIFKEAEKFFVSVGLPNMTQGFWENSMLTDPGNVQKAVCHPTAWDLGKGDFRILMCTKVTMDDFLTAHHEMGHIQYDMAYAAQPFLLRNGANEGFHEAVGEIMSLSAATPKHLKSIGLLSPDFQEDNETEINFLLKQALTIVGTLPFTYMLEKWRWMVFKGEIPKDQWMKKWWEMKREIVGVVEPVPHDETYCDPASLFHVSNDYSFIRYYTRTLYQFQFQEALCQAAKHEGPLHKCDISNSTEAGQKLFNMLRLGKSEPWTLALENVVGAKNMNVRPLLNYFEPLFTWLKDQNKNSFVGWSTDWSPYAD

With “2019-nCoV S prefusion-stabilized ectodomain (residues 1-1208, two proline substitutions, GSAS at the (domain or fragment)”, in experiment [1], the stoichiometry N (as a rule, the number of molecules, sites or subunits per partner or assembly) is 3.

In the case of “human angiotensin-converting enzyme 2 (ACE2), residues 1-615, untagged (from UniProt Q9BYF1 18-615) (receptor)”, the Kd (usually the concentration at which binding is half-saturated) in experiment [2] amounted to 0.015 µM.
